The record followed here is US20110262446A1.

Assay [1] concerns the target IGF-IIE (amino acids 1-104) (human) (UniProt P01344). Briefly: SPR (Biacore T100): IgG captured on Protein G', ligand bound, then BP injected; competitor BP2.
The target is the same in assay [2]. Briefly: SPR (Biacore T100): IgG captured on Protein G', ligand bound, then BP injected; competitor BP4. A general note: SPR reads the build-up and loss of mass on a sensor chip optically.
Assay [3] shares this target. Kind of assay: SPR (Flexchip), Fab, first of duplicate; unit inferred.
Assay [4] shares this target. Briefly: SPR (Flexchip), Fab, second of duplicate; unit inferred.
Assay [5] shares this target. Kind of assay: competition SPR (Biacore T100), affinity in solution: Fab pre-incubated with ligand, free ligand read on immobilized huIR-A ECD; measurement #1; head prints 'KD nM'.
Assay [6] has the same target. Kind of assay: cell-based or functional assay.
Assay [7] has the same target. Kind of assay: SPR (Biacore), non-germlined IgG.
The target is the same in assay [8]. Kind of assay: SPR (Biacore), germlined IgG.
The target is the same in assay [9]. Briefly: competition SPR (Biacore T100), affinity in solution: Fab pre-incubated with ligand, free ligand read on immobilized huIR-A ECD; measurement #2; head prints 'KD nM'.

Sequence of IGF-IIE (amino acids 1-104) (human) (P01344 25-128 limits assumed, form in doubt): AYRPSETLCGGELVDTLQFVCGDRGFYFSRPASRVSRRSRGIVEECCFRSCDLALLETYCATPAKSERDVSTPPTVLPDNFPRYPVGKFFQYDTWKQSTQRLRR

B1: M0070-H08 IgG (antibody, V domains shown)
VH: EVQLLESGGGLVQPGGSLRLSCAASGFTFSRYWMIWVRQAPGKGLEWVSSIRSSGETKYADSVKGRFTISRDNSKNTLYLQMNSLRAEDTAVYYCARGPLSDYYDSSGYYFDAFDIWGQGTMVTVSS
VL: DIQMTQSPSSLSASAGDRVTITCRASQSISSYLNWYQQKPGKAPNLLIYTTSNLQGGVPSRFSGSGSGTDFTLTISSLQPEDFATYYCQQGYSFPLTFGGGTKVEIK
For the molecule B1, the competition score (0 = does not compete significantly, 5 = competes strongly) in [1] came to 2 score 0-5; in [2] it was 1 score 0-5.

B2: M0070-H08 Fab (Fab, V domains shown)
VH: EVQLLESGGGLVQPGGSLRLSCAASGFTFSRYWMIWVRQAPGKGLEWVSSIRSSGETKYADSVKGRFTISRDNSKNTLYLQMNSLRAEDTAVYYCARGPLSDYYDSSGYYFDAFDIWGQGTMVTVSS
VL: DIQMTQSPSSLSASAGDRVTITCRASQSISSYLNWYQQKPGKAPNLLIYTTSNLQGGVPSRFSGSGSGTDFTLTISSLQPEDFATYYCQQGYSFPLTFGGGTKVEIKR
Usually Kd stands for the free concentration of one partner at which half of the binding sites on the other are occupied at equilibrium, for simple one-to-one binding. Low values mean higher affinity, high ones lower affinity. B2: the dissociation constant Kd came out at 0.36 nM in assay [3], 0.39 nM in assay [4] and 4.83 nM in assay [5].

B3: M0064-E04 IgG (antibody, V domains shown)
VH: EVQLLESGGGLVQPGGSLRLSCAASGFTFSVYDMNWVRQAPGKGLEWVSSISSSGGGTLYADSVKGRFTISRDNSKNTLYLQMNSLRAEDTAVYYCARDSDTSSYYWYYDLWGRGTLVTVSS
VL: DIQMTQSPSSLSASVGDRVTITCQASHDISNYLNWYQQKPGKAPKLLIYAASRLQSGVPSRFSGGGSGTDFSLTISSLQAEDFATYYCQQSYSFPRTFGQGTNLEIK
For the molecule B3, the IC50, IGF-IIE stimulated BaF3 cell proliferation (Guava ViaCount) in assay [6] is 130 nM. In assay [7], this molecule returned a dissociation constant Kd of 0.24 nM. Besides, the competition score (0 = does not compete significantly, 5 = competes strongly) in assay [1] and in [2] was 4 score 0-5 in each case.

B4: X0005-H01 (germlined M0064-E04 IgG) (antibody, V domains shown)
VH: EVQLLESGGGLVQPGGSLRLSCAASGFTFSVYDMNWVRQAPGKGLEWVSSISSSGGGTLYADSVKGRFTISRDNSKNTLYLQMNSLRAEDTAVYYCARDSDTSSYYWYYDLWGRGTLVTVSS
VL: DIQMTQSPSSLSASVGDRVTITCQASHDISNYLNWYQQKPGKAPKLLIYAASRLQSGVPSRFSGSGSGTDFTLTISSLQPEDFATYYCQQSYSFPRTFGQGTRLEIK
The molecule B4 showed a Kd in [8] of 0.26 nM.

B5: M0063-F02 Fab (Fab, V domains shown)
VH: EVQLLESGGGLVQPGGSLRLSCAASGFTFSKYEMDWVRQAPGKGLEWVSVISSSGGGTIYADSVKGRFTISRDNSKNTLYLQMNSLRAEDTAMYYCARGRTLYGGAFDIWGQGTMVTVSS
VL: DIQMTQSPSSLSASVGDRVTITCRASQPINTYLNWYQQRPGKAPRILIYTSSTLQSGVPSRFSGSGSGTDFTLTISSVQPEDFATYYCQQSYSFPLTFGGGTKVEIKR
Turning to B5, the IC50, IGF-IIE stimulated BA/F3 cell proliferation (MTS) in assay [6] was 2.04 µg/mL. The dissociation constant (Kd) in [3] was found to be 0.12 nM; in assay [4], 0.2 nM; in assay [5], 2.78 nM; in assay [9], 1.47 nM.

B6: M0063-F02 IgG (antibody, V domains shown)
VH: EVQLLESGGGLVQPGGSLRLSCAASGFTFSKYEMDWVRQAPGKGLEWVSVISSSGGGTIYADSVKGRFTISRDNSKNTLYLQMNSLRAEDTAMYYCARGRTLYGGAFDIWGQGTMVTVSS
VL: DIQMTQSPSSLSASVGDRVTITCRASQPINTYLNWYQQRPGKAPRILIYTSSTLQSGVPSRFSGSGSGTDFTLTISSVQPEDFATYYCQQSYSFPLTFGGGTKVEIK
With B6, in assay [6], the IC50, IGF-IIE stimulated BaF3 cell proliferation (Guava ViaCount) came to 0.85 nM and the IC50, IGF-IIE stimulated BaF3 cell proliferation (Guava ViaCount), second study was 10 nM. In assay [1], the competition score (0 = does not compete significantly, 5 = competes strongly) is 1 score 0-5. The same molecule came in with a competition score (0 = does not compete significantly, 5 = competes strongly) in [2] of 1 score 0-5.

B7: X0008-A01 (germlined M0064-F02 IgG) (antibody, V domains shown)
VH: EVQLLESGGGLVQPGGSLRLSCAASGFTFSNYIMWWVRQAPGKGLEWVSVISSSGGMTRYADSVKGRFTISRDNSKNTLYLQMNSLRAEDTAVYYCARDNGDYVGEKGFDIWGQGTMVTVSS
VL: DIQMTQSPSSLSASVGDRVTITCRASQSISNYLNWYQQKPGKAPKLLIYTASTLQSGVPSRFSGSGSGTDFTLTISSLQPEDFATYYCQQSYNSPWTFGQGTKVEIK
In [8], B7 yielded a dissociation constant Kd of under 0.023 nM.

B8: M0072-C06 Fab (Fab, V domains shown)
VH: EVQLLESGGGLVQPGGSLRLSCAASGFTFSAYIMTWVRQAPGKGLEWVSSISPSGGYTVYADSVKGRFTISRDNSKNTLYLQMNSLRAEDTAVYYCARDSGFGDPFDYWGQGTMVTVSS
VL: DIQMTQSPSSLSASVGDRVTITCRASQSIRNYLNWYQQKPGKAPKLLIYAASKLEDGVPSRFSGSGTGTDFTLTIRSLQPEDFASYFCQQSYSSPGITFGPGTKVEIKR
B8 yielded an IC50, IGF-IIE stimulated BA/F3 cell proliferation (MTS) in assay [6] of 2.3 µg/mL. Moreover, the dissociation constant (Kd) in assay [3] was 0.52 nM; in [5] it was 3.95 nM; in assay [9] it was 1.05 nM.

B9: M0072-C06 IgG (antibody, V domains shown)
VH: EVQLLESGGGLVQPGGSLRLSCAASGFTFSAYIMTWVRQAPGKGLEWVSSISPSGGYTVYADSVKGRFTISRDNSKNTLYLQMNSLRAEDTAVYYCARDSGFGDPFDYWGQGTMVTVSS
VL: DIQMTQSPSSLSASVGDRVTITCRASQSIRNYLNWYQQKPGKAPKLLIYAASKLEDGVPSRFSGSGTGTDFTLTIRSLQPEDFASYFCQQSYSSPGITFGPGTKVEIK
In the case of B9, the competition score (0 = does not compete significantly, 5 = competes strongly) amounted to 2 score 0-5 in [1] and 1 score 0-5 in [2].
